According to paper PMC4358367, “Structural basis of diverse membrane target recognitions by ankyrins” (eLife, 2014):
Where no end group is shown, it is not given here.

Target: T1, AnkB_repeats site 2 mutant 'IL' (Ile267 and Leu300 to Gln) (human, UniProt Q01484 28-873, Ile267 substituted with Gln | Leu300 substituted with Gln)
T1 sequence: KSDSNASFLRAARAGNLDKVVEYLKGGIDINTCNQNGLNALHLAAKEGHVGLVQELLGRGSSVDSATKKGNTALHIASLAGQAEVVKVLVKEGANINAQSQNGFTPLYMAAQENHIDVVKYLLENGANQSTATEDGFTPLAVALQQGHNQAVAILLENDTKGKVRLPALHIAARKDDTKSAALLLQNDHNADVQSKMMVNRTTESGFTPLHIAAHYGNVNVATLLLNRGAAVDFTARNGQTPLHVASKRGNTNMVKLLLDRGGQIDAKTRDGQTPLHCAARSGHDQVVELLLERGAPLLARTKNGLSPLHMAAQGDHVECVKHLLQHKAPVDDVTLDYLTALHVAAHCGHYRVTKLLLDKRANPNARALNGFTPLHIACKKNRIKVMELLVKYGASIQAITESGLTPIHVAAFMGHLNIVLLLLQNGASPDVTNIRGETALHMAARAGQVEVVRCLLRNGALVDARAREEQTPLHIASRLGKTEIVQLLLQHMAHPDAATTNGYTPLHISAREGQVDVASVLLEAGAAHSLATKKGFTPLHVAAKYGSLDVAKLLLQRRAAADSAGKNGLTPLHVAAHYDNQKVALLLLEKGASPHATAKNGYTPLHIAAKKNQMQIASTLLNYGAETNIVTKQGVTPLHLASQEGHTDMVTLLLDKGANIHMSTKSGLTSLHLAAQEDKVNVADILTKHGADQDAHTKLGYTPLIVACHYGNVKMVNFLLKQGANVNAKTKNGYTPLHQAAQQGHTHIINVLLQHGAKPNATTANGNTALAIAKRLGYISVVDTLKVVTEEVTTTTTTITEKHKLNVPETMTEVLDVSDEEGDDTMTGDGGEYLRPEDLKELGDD
Assay: FP

Kd: 8.2 µM
B1: Cav1.3 peptide (mouse Cav1.3 residues 2134–2166), FITC-labeled (peptide, UniProt Q99246-4 2134-2166, looked up)
peptide: ELQDFGPGYSDEEPDPGREEEDLADEMICITTL
modifications: also: FITC label (position not given here)
notes: voltage-gated calcium channel Cav1.3, mouse, residues 2134-2166; also called voltage-gated calcium channel Cav1.3 peptide; source: synthetic peptide (commercially synthesized)
